Test results: publication PMC9073327
Substitutions are numbered along the chain they refer to.

Legend:
LHY:MBP [1] = target: T1, LHY:MBP (Arabidopsis thaliana, UniProt Q6R0H1 1-645); experiment: EMSA
T1 sequence: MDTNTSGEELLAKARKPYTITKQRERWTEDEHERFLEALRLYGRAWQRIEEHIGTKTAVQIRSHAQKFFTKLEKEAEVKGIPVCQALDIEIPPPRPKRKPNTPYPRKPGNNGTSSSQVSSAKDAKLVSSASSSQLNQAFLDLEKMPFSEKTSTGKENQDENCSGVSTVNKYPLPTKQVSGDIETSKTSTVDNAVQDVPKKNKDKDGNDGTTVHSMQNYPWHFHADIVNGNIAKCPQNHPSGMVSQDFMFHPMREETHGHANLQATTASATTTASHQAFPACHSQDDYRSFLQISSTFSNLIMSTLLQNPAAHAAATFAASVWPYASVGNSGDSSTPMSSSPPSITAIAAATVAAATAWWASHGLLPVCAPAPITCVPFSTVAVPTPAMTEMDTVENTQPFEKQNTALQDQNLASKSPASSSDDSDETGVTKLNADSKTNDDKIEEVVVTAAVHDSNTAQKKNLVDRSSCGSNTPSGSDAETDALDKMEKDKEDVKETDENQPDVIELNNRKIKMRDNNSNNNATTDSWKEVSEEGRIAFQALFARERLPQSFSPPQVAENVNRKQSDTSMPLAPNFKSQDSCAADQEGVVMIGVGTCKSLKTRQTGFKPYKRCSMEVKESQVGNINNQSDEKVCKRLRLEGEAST

CCA1:MBP [2] = target: T2, CCA1:MBP (Arabidopsis thaliana, UniProt P92973 1-608); experiment: EMSA
LHY:MBP;WRKY10:MYC = LHY:MBP;WRKY10:MYC (Arabidopsis thaliana;Arabidopsis …, UniProt Q6R0H1;Q9LG05 1-645;1-485, |); experiment: EMSA
LHY:MBP;WRKY2:HIS = LHY:MBP;WRKY2:HIS (Arabidopsis thaliana;Arabidopsis …, UniProt Q6R0H1;Q9FG77 1-645;1-687, |); experiment: EMSA
CCA1:MBP [3] = target: T2, CCA1:MBP; experiment: competition
LHY:MBP [4] = target: T1, LHY:MBP; experiment: competition
WRKY2:HIS [5] = target: T3, WRKY2:HIS (Arabidopsis thaliana (Col), UniProt Q9FG77 1-687); experiment: EMSA
WRKY10:MYC [6] = target: T4, WRKY10:MYC (Arabidopsis thaliana (Col), UniProt Q9LG05 1-485); experiment: EMSA
WRKY2:HIS [7] = target: T3, WRKY2:HIS; experiment: competition
WRKY10:MYC [8] = target: T4, WRKY10:MYC; experiment: competition

T2 sequence (P92973 whole entry): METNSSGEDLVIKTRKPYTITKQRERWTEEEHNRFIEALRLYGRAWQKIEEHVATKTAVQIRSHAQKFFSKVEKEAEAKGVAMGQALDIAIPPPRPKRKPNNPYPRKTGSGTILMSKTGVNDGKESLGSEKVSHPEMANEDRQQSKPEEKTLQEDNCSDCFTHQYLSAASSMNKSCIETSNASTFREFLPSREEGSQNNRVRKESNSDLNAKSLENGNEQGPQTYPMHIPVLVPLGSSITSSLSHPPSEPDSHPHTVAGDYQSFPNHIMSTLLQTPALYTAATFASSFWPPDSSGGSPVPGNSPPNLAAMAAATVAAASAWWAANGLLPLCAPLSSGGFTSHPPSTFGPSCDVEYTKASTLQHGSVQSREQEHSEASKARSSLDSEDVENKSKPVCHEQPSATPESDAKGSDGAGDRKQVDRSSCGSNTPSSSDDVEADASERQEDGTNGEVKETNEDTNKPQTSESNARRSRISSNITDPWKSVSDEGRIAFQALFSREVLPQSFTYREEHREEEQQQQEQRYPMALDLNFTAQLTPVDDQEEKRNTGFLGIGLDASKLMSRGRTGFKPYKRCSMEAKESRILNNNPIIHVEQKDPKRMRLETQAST
T3 sequence (Q9FG77 whole entry): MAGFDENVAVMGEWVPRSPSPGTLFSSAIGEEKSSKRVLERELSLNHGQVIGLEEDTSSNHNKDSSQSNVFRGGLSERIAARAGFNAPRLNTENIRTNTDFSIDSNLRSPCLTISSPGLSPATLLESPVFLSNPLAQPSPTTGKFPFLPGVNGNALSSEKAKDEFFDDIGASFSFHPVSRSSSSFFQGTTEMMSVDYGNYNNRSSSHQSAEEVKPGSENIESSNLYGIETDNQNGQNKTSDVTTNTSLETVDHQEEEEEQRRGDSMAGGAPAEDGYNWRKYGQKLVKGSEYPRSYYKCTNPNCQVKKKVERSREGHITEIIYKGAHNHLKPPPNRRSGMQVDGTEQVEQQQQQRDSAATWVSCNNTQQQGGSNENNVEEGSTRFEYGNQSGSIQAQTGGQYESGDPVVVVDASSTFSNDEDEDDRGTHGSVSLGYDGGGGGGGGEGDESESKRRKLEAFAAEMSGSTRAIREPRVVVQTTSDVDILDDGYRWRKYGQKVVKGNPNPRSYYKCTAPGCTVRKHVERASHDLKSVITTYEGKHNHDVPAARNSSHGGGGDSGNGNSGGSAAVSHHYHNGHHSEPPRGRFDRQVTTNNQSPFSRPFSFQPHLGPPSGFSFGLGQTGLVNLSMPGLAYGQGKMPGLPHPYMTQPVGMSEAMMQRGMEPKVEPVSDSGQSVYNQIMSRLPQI
T4 sequence (Q9LG05 whole entry): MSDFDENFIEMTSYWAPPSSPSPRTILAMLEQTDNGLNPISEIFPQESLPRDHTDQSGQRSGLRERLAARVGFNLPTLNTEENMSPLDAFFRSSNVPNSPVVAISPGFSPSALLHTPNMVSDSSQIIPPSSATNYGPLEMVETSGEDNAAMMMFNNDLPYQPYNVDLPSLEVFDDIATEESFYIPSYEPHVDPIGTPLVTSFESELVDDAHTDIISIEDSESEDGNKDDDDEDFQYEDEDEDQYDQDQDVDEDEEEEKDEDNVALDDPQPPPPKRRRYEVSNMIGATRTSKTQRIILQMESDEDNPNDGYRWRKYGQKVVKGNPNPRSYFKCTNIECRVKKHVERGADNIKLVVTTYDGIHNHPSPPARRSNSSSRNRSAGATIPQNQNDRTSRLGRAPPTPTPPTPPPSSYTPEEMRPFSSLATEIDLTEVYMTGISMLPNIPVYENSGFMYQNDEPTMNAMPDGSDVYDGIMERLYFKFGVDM
LHY:MBP;WRKY2:HIS, sequence (Q9FG77 whole entry, one chain of several): as the sequence (Q9FG77 whole entry) above
LHY:MBP;WRKY10:MYC, sequence (Q9LG05 whole entry, one chain of several): as the sequence (Q9LG05 whole entry) above

B1: PIF4 M1-box probe (4M1) (dsDNA)
DNA 1: ATCTCCCTCGCTGTAATATCTTTATGCTCCTGTCACT
DNA 2: AGTGACAGGAGCATAAAGATATTACAGCGAGGGAGAT
- binding result (LHY:MBP [1]): binds
- binding result (CCA1:MBP [2]): binds
- binding result (LHY:MBP;WRKY10:MYC): binds
- binding result (LHY:MBP;WRKY2:HIS): binds

B2: PIF4 M1-box mutant competitor (4M1 mut) (dsDNA)
DNA 1: B1 DNA 1 with A18T, T19G
DNA 2: B1 DNA 2 with A19C, T20A
- binding result (CCA1:MBP [3]): no binding
- binding result (LHY:MBP [4]): no binding

B3: PIF4 W1-box probe (4W1) (dsDNA)
DNA 1: CTATAGATGATTGTGATTTGACAAAAACACCCTCAAATCA
DNA 2: TGATTTGAGGGTGTTTTTGTCAAATCACAATCATCTATAG
- binding result (WRKY2:HIS [5]): binds
- binding result (WRKY10:MYC [6]): binds

B4: PIF4 W1-box mutant competitor (4W1 mut) (dsDNA)
DNA 1: CTATAGATGATTGTGATGGTGTGAAAACACCCTCAAATCA
DNA 2: TGATTTGAGGGTGTTTTCACACCATCACAATCATCTATAG
- binding result (WRKY2:HIS [7]): no binding
- binding result (WRKY10:MYC [8]): no binding
